Reference: the supplement of paper PMC6755084

B1: minF1; a variant is named by its letters at N, in order (parent)
chain: GAGACCGCAACTGAAAAGTTGTTNNNNAANNNNGGNTNNATTTCTGCACGTAGAAGCAAAAGGC

Variants of: B1
Experiment: fraction ligated after 30 min (ligated reads / total reads); higher = more ligase activity
Settings: with F1*subA RNA substrate (template-directed ligation), 42 °C
Method: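 Chip-synthesised pool of minF1 ligase ribozyme variants (single and double substitutions, single to quadruple deletions, bulge and P2 designed variants) was transcribed with T7 and reacted as a pool with excess substrate F1*subA for 30 min at 42 C in 50 mM EPPS pH 8.5, 25 mM MgCl2. Ligated and unligated RNAs were separated by PAGE, barcoded by RT and deep sequenced; fraction ligated = ligated reads / total reads, relative activity = FL / FL of wild-type minF1 (0.76); sequencing FL correlated with PAGE (R2 = 0.98). Sequences are the DNA template of the ribozyme.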

Row | Variant | fraction ligated
1 | CAGATGGAGTG G34T | 0.0137
2 | TAGATGGAGTG G34T | 0.0121
3 | AAGATGGAGTG G34T | 0.00776
4 | CAGATGGAGTG T23A | 0.00354
5 | TAGATGGAGTG T23A | 0.00424
6 | CAGATGGAGTG T23A G34T | 0.0111
7 | TAGATGGAGTG T23A G34T | 0.00936
8 | CAGATGGAGTT G34T T37G | 0.0026
9 | TAGATGGAGTT G34T T37G | 0.00107
10 | AAGATGGAGTT G34T T37G | 0.00134
11 | CAGATGGAGTT G34T T37G A40G | 0.000312
12 | TAGATGGAGTT G34T T37G A40G | 0.00199
13 | AAGATGGAGTT G34T T37G A40G | 0.0006
14 | CAGATGGAGTT T23A G34T T37G | 0.00071
15 | TAGATGGAGTT T23A G34T T37G | 0.000868
16 | CAGATGGAGTT T23A G34T T37G A40G | 0.00303
17 | TAGATGGAGTT T23A G34T T37G A40G | 0.00177
18 | CAGATGGATGA | 0.00376
19 | TAGATGGATGA | 0.00101
20 | AAGATGGATGA | 0.00526
21 | CAGATGGATGA T23A | 0.00203
22 | TAGATGGATGA T23A | 0.00368
23 | CAGATGGGTGA | 0.00455
24 | TAGATGGGTGA | 0.00433

Row | Variant | fraction ligated
25 | AAGATGGGTGA | 0.00372
26 | CAGATGGGTGA T23A | 0.00475
27 | TAGATGGGTGA T23A | 0.000824
28 | CAGATGGTGTA | 0.00171
29 | TAGATGGTGTA | 0.00141
30 | AAGATGGTGTA | 0.00401
31 | CAGATGGTGTA T23A | 0.00242
32 | TAGATGGTGTA T23A | 0.00161
33 | CAGATGGTGTG | 0.00377
34 | TAGATGGTGTG | 0.0042
35 | AAGATGGTGTG | 0.00357
36 | CAGATGGTGTG T23A | 0.00474
37 | TAGATGGTGTG T23A | 0.00451
38 | CAGATGGTTGA | 0.000297
39 | TAGATGGTTGA | 0.00065
40 | AAGATGGTTGA | 0.00185
41 | CAGATGGTTGA T23A | 0.00385
42 | TAGATGGTTGA T23A | 0.00325
43 | CAGATGTGTGA | 0.00342
44 | TAGATGTGTGA | 0.00395
45 | AAGATGTGTGA | 0.00241
46 | CAGATGTGTGA T23A | 0.00226
47 | TAGATGTGTGA T23A | 0.00136
48 | TCAAGATGTGA | 0.00179

Row | Variant | fraction ligated
49 | ACAAGATGTGA | 0.00207
50 | TCAAGATGTGA A28T A29G | 0.00257
51 | ACAAGATGTGA A28T A29G | 0.00369
52 | TCAAGATGTGA A29G | 0.0031
53 | ACAAGATGTGA A29G | 0.0031
54 | TCAAGATGTGA A29T | 0.00235
55 | ACAAGATGTGA A29T | 0.0029
56 | TCAAGATGTGA T23A | 0.0017
57 | TCAAGATGTGA T23A A28T A29G | 0.00482
58 | TCAAGATGTGA T23A A29G | 0.00178
59 | TCAAGATGTGA T23A A29T | 0.00239
60 | TCAAGGAGTGA | 0.000917
61 | ACAAGGAGTGA | 0.00357
62 | TCAAGGAGTGA A29T | 0.00143
63 | ACAAGGAGTGA A29T | 0.00407
64 | TCAAGGAGTGA T23A | 0.00195
65 | TCAAGGAGTGA T23A A29T | 0.00288
66 | TCAAGGATGTA | 0.0017
67 | ACAAGGATGTA | 0.00108
68 | TCAAGGATGTA A29T | 0.00204
69 | ACAAGGATGTA A29T | 0.00548
70 | TCAAGGATGTA T23A | 0.000851
71 | TCAAGGATGTA T23A A29T | 0.00242
72 | TCAAGGATGTG | 0.00569

Row | Variant | fraction ligated
73 | ACAAGGATGTG | 0.00585
74 | TCAAGGATGTG A29T | 0.00632
75 | ACAAGGATGTG A29T | 0.00671
76 | TCAAGGATGTG T23A | 0.00539
77 | TCAAGGATGTG T23A A29T | 0.0062
78 | TCAAGGATTGA | 0.00222
79 | ACAAGGATTGA | 0.00332
80 | TCAAGGATTGA A29T | 0.00468
81 | ACAAGGATTGA A29T | 0.00464
82 | TCAAGGATTGA T23A | 0.00297
83 | TCAAGGATTGA T23A A29T | 0.00443
84 | TCAAGGTGTGA | 0.00226
85 | ACAAGGTGTGA | 0.00367
86 | TCAAGGTGTGA A29T | 0.00119
87 | ACAAGGTGTGA A29T | 0.00256
88 | TCAAGGTGTGA T23A | 0.00305
89 | TCAAGGTGTGA T23A A29T | 0.00393
90 | TCAATATGTGA | 0.00184
91 | ACAATATGTGA | 0.00334
92 | TCAATATGTGA T23A | 0.00157
93 | TCAATGAGTGA | 0.0012
94 | ACAATGAGTGA | 0.000748
95 | TCAATGAGTGA T23A | 0.00315
96 | TCAATGATGTA | 0.00254

Row | Variant | fraction ligated
97 | ACAATGATGTA | 0.00197
98 | TCAATGATGTA T23A | 0.00393
99 | TCAATGATGTG | 0.0049
100 | ACAATGATGTG | 0.00556
101 | TCAATGATGTG T23A | 0.00503
102 | TCAATGATTGA | 0.00117
103 | ACAATGATTGA | 0.00348
104 | TCAATGATTGA T23A | 0.00254
105 | TCAATGGAGTA | 0.00279
106 | ACAATGGAGTA | 0.00362
107 | TCAATGGAGTA G34T | 0.0216
108 | ACAATGGAGTA G34T | 0.0117
109 | TCAATGGAGTA T23A | 0.00206
110 | TCAATGGAGTA T23A G34T | 0.0178
111 | TCAATGGAGTG | 0.00581
112 | ACAATGGAGTG | 0.00309
113 | TCAATGGAGTG G34T | 0.0438
114 | ACAATGGAGTG G34T | 0.0274
115 | TCAATGGAGTG T23A | 0.0035
116 | TCAATGGAGTG T23A G34T | 0.0342
117 | TCAATGGAGTT G34T T37G | 0.00235
118 | ACAATGGAGTT G34T T37G | 0.00166
119 | TCAATGGAGTT G34T T37G A40G | 0.00127
120 | ACAATGGAGTT G34T T37G A40G | 0.00101

Row | Variant | fraction ligated
121 | TCAATGGAGTT T23A G34T T37G | 0.00105
122 | TCAATGGAGTT T23A G34T T37G A40G | 0.00124
123 | TCAATGGATGA | 0.00193
124 | ACAATGGATGA | 0.00232
125 | TCAATGGATGA T23A | 0.00363
126 | TCAATGGGTGA | 0.00124
127 | ACAATGGGTGA | 0.00353
128 | TCAATGGGTGA T23A | 0.00158
129 | TCAATGGTGTA | 0.00227
130 | ACAATGGTGTA | 0.00264
131 | TCAATGGTGTA T23A | 0.00153
132 | TCAATGGTGTG | 0.00437
133 | ACAATGGTGTG | 0.00545
134 | TCAATGGTGTG T23A | 0.00466
135 | TCAATGGTTGA | 0.00179
136 | ACAATGGTTGA | 0.00142
137 | TCAATGGTTGA T23A | 0.00285
138 | TCAATGTGTGA | 0.00236
139 | ACAATGTGTGA | 0.00146
140 | TCAATGTGTGA T23A | 0.00162
141 | TCAGAATGTGA | 0.00302
142 | ACAGAATGTGA | 0.00222
143 | TCAGAATGTGA T23A | 0.00396
144 | TCAGAGAGTGA | 0.00182

Row | Variant | fraction ligated
145 | ACAGAGAGTGA | 0.00105
146 | TCAGAGAGTGA T23A | 0.0017
147 | TCAGAGATGTA | 0.000871
148 | ACAGAGATGTA | 0.00268
149 | TCAGAGATGTA T23A | 0.00211
150 | TCAGAGATGTG | 0.0039
151 | ACAGAGATGTG | 0.00764
152 | TCAGAGATGTG T23A | 0.00606
153 | TCAGAGATTGA | 0.00355
154 | ACAGAGATTGA | 0.00246
155 | TCAGAGATTGA T23A | 0.00203
156 | TCAGAGGAGTA | 0
157 | ACAGAGGAGTA | 0.0028
158 | TCAGAGGAGTA G34T | 0.00236
159 | ACAGAGGAGTA G34T | 0.000671
160 | TCAGAGGAGTA T23A | 0.00164
161 | TCAGAGGAGTA T23A G34T | 0.0014
162 | TCAGAGGAGTG | 0.00573
163 | ACAGAGGAGTG | 0.00401
164 | TCAGAGGAGTG G34T | 0.00594
165 | ACAGAGGAGTG G34T | 0.00588
166 | TCAGAGGAGTG T23A | 0.0042
167 | TCAGAGGAGTG T23A G34T | 0.00498
